From patent publication US20200330514A1 (TORQUE THERAPEUTICS, published 2020)
Values belong to the binder of their own block, whether it stands above or below them.

How the values were obtained:
[1] = biological target: T1, human CD45 receptor on the surface of human T cells (human, UniProt P08575 26-1306); assay: flow cytometry titration on activated primary human CD8 T cells, anti-human IgG-Fc detection
T1 construct: whole, on cells; also called cellular CD45; leukocyte common antigen
T1 sequence (looked up): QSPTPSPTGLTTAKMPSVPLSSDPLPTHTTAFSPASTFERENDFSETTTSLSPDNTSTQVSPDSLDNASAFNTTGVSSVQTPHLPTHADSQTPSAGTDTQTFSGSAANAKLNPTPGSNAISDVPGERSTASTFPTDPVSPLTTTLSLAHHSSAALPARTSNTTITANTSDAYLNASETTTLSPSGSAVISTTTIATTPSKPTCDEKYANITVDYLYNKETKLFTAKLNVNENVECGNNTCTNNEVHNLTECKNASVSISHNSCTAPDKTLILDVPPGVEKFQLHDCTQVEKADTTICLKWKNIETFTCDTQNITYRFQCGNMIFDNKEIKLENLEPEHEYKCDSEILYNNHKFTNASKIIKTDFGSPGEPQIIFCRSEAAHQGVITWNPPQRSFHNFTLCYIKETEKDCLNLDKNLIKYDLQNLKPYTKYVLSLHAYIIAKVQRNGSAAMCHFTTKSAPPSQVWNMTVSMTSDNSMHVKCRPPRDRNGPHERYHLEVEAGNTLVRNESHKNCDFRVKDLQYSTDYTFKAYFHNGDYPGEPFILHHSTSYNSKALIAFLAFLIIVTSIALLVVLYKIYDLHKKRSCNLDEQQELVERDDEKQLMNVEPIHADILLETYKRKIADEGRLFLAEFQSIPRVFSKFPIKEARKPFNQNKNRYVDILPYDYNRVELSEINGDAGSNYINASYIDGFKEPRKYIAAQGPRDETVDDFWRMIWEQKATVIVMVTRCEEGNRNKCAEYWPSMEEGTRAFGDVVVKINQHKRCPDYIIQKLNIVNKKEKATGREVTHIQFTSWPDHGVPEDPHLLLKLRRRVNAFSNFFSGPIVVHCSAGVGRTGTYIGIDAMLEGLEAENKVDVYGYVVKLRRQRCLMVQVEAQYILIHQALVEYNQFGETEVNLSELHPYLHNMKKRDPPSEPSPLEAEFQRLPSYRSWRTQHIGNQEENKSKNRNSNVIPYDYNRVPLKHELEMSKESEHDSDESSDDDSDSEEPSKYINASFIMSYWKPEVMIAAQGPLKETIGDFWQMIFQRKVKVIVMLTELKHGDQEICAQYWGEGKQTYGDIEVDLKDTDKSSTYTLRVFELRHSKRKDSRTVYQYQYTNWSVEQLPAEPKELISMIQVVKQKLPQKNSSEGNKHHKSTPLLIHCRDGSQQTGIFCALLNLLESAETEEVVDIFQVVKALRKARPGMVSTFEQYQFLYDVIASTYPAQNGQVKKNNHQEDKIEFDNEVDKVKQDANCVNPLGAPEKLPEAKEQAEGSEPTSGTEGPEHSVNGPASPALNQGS
Excerpt: To evaluate whether anti-CD45 antibodies other than BC8 are capable of generating IFMs with improved potency, we evaluated two additional anti-CD45 monoclonal antibodies (mAb clones 9.4 and 4B2). We first evaluated the binding affinities of chimeric IgG forms of these antibodies to CD45 expressed on the surface of activated CD8 T cells. The chimeric antibodies each comprise mouse variable domains and human constant region (human constant kappa domain and human IgG4 containing an S228P mutation to stabilize the IgG4 hinge region). For comparison with previous results we evaluated these antibodies alongside chBC8, hBC8(23), and a non-binding variant hBC8-null. The humanized BC8 antibody consists of variable domains containing CDR regions grafted from BC8, and the hBC8-null variant contains an SGGGS substitution in the heavy-chain CDR3, which ablates binding to CD45 (FIG. 10A). […]
Cell binding assay. […] Cells were washed with MACS buffer (PBS, 2% FBS, 1 mM EDTA) three times, and antibody binding was detected using a PE-conjugated anti-human IgG-Fc antibody (BioLegend, cat. no. HP6017) for 20 min. at 4° C. […]

[2] = biological target: T2, mouse CD45 on the surface of mouse T cells (mouse, UniProt P06800 26-1293); assay: pulse incubation at 125 nM on activated mouse CD8 T cells, anti-mouse IL-12 staining by flow cytometry (FIG. 32)
T2 construct: whole, on cells
T2 sequence (looked up): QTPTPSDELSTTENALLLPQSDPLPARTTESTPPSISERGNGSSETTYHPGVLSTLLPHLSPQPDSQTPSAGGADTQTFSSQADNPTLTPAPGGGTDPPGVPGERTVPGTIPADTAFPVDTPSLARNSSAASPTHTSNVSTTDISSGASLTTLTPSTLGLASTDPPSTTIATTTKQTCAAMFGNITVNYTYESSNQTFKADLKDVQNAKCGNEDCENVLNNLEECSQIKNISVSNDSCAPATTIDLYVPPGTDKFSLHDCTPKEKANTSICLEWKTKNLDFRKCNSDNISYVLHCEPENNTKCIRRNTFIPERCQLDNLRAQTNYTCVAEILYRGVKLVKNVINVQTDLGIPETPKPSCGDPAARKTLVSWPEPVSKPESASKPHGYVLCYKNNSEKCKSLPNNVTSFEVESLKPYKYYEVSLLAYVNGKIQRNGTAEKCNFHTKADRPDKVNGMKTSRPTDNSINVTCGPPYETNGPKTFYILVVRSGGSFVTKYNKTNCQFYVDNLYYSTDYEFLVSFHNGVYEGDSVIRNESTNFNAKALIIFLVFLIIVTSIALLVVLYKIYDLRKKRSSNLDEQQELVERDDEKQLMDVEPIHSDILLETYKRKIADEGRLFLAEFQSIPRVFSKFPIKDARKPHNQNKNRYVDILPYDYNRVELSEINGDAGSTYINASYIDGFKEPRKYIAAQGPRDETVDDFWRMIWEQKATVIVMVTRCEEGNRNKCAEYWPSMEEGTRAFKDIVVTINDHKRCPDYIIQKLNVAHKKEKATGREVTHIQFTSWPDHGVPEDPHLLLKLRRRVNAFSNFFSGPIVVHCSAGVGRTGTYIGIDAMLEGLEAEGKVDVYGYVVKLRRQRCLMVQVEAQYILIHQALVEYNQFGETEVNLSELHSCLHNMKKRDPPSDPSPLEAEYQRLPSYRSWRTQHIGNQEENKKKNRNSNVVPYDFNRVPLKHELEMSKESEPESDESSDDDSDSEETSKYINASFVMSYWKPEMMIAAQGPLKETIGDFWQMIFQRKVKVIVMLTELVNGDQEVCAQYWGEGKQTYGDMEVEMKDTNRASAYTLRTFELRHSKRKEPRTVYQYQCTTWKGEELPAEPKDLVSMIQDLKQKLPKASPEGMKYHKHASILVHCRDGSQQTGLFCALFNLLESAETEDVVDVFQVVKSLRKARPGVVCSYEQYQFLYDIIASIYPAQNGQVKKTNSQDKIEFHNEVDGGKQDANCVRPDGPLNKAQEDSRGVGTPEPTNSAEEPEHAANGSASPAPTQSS
Protocol: We evaluated the ability of tethered fusions comprising an antibody specific for mouse CD45 and the mouse scIL-12p70 cytokine to facilitate loading and persistence of IL-12 on the surface of mouse T cells. Prior to incubation with the mouse IL12-TFs, mouse CD8 T cells were isolated from Pmel mice, activated for two days using antibodies against mouse CD3 and CD28 receptors, and then expanded in the presence of IL-21 for two days. Briefly, isolated CD8 T cells were incubated in full medium (containing RPMI 1640, 10% FBS, insulin-transferrin-selenium, penicillin/streptomycin, and 50 uM beta-mercaptoethanol) in Nunc HighBind plates that were previously coated with antibodies against mouse CD3 and CD28 receptors; the CD3 and CD28 antibodies were coated at concentrations of 0.5 ug/mL and 5 ug/mL, respectively. After approximately 24 hr incubation on the antibody-coated plates IL-2 and IL-7 were added to a final concentrations of 20 ng/mL and 0.5 ng/mL respectively. After a second day of incubation, cells were recovered from the antibody-coated plates and diluted to a density of approximately 200,000 cells/mL into medium containing IL-21 at a final concentration of 20 ng/mL. […] On Days 0, 1, 3, and 5 after the pulse incubation cells were immunostained using antibodies specific to mouse IL-12 and analyzed on a FACSCelesta using Diva Software; data was analyzed using FlowJo. […]

binding result [1]: no binding (tested: 500 nM)
B1: hBC8-null humanized BC8 antibody with SGGGS substitution in CDR-H3 (IgG form) (antibody, V domains shown)
VH: EVQLVESGGGLVQPGGSLRLSCAASGFDFSRYWMSWVRQAPGKGLEWIGEINPTSSTINFADSVKGRFTISRDNAKNSLYLQMNSVRDEDTAVYYCARGSGGGSGDAMDYWGQGTLVTVSS
VL: EIVLTQSPATLSLSLGERATISCRASKSVSTSGYSYLHWYQQKPGQAPKLLIYLASNRATGVPARFSGSGPGTDFTLTISSLEPEDFATYYCQHSRELPFTFGQGTKLEIK
notes: constant regions of the tested antibody not spelled out; also called hBC8(23)-null

binding result [2]: binds
B2: chM1Fab-M1scFv-scIL-12p70 (other)
heavy: QVNLLQSGAALVKPGASVKLSCKASGYTFTDYYIHWVKQSHGKSLEWVAYINPDRDYTNYNEKFKSKATLTVDKSTNTAYMELSRLTSEDSATFYCTRRLYDGAYYYSWFAYWGQGTLVTVSSASTKGPSVFPLAPSSKSTSGGTAALGCLVKDYFPEPVTVSWNSGALTSGVHTFPAVLQSSGLYSLSSVVTVPSSSLGTQTYICNVNHKPSNTKVDKKVEPKSCGGGGSGGGGSGGGGSQVNLLQSGAALVKPGASVKLSCKASGYTFTDYYIHWVKQSHGKSLEWVAYINPDRDYTNYNEKFKSKATLTVDKSTNTAYMELSRLTSEDSATFYCTRRLYDGAYYYSWFAYWGQGTLVTVSSGGGGSGGGGSGGGGSGGGGSDIQMTQSPHSLSASLGETVSIECLASEGISNYLAWYQQKPGKSPQLLIYYGSRLQDGVPSRFSGSGSGTQYSLRITNMQPEDEGVYYCQQGYKYPYTFGAGTKLELK
light: DIQMTQSPHSLSASLGETVSIECLASEGISNYLAWYQQKPGKSPQLLIYYGSRLQDGVPSRFSGSGSGTQYSLRITNMQPEDEGVYYCQQGYKYPYTFGAGTKLELKRTVAAPSVFIFPPSDEQLKSGTASVVCLLNNFYPREAKVQWKVDNALQSGNSQESVTEQDSKDSTYSLSSTLTLSKADYEKHKVYACEVTHQGLSSPVTKSFNRGECGGGGSGGGGSGGGGSMWELEKDVYVVEVDWTPDAPGETVNLTCDTPEEDDITWTSDQRHGVIGSGKTLTITVKEFLDAGQYTCHKGGETLSHSHLLLHKKENGIWSTEILKNFKNKTFLKCEAPNYSGRFTCSWLVQRNMDLKFNIKSSSSSPDSRAVTCGMASLSAEKVTLDQRDYEKYSVSCQEDVTCPTAEETLPIELALEARQQNKYENYSTSFFIRDIIKPDPPKNLQMKPLKNSQVEVSWEYPDSWSTPHSYFSLKFFVRIQRKKEKMKETEEGCNQKGAFLVEKTSTEVQCKGGNVCVQAQDRYYNSSCSKWACVPCRVRSGGGGSGGGGSGGGGSGGGGSRVIPVSGPARCLSQSRNLLKTTDDMVKTAREKLKHYSCTAEDIDHEDITRDQTSTLKTCLPLELHKNESCLATRETSSTTRGSCLPPQKTSLMMTLCLGSIYEDLKMYQTEFQAINAALQNHNHQQIILDKGMLVAIDELMQSLNHNGETLRQKPPVGEADPYRVKMKLCILLHAFSTRVVTINRVMGYLSSA
